This is an account of results in article PMC10397247.

Common to all, as to assay: two-hybrid library CCmax;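 also: natural log of median RNA to DNA barcode read ratio; higher means stronger binding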
One experiment deals with T1, P5-AA-1HGe-D.
T1 chain: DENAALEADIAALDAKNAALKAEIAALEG
To be noted: mean of both orientations.

The target in another experiment is T2, P5-AA-1HGe-A.
T2 chain: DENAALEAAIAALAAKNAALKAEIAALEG
As to conditions: mean of both orientations.

A further experiment addresses T3, P5-AA-1HGe-Q.
T3 chain: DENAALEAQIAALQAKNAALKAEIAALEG
As to conditions: mean of both orientations.

For another experiment, the target named is T4, P5-AA-1HGe-M.
T4 chain: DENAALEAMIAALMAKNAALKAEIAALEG
As to conditions: mean of both orientations.

The target of another experiment is T5, O8-AA.
T5 chain: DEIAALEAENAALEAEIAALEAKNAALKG
To be noted: mean of both orientations.

Another experiment concerns the target T6, P10-AA.
T6 chain: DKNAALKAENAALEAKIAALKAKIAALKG
As to conditions: mean of both orientations.

In a further experiment the target is T7, P5-AA-1HGe-H.
T7 chain: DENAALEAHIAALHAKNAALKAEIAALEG
To be noted: mean of both orientations.

Another experiment has as its target T8, O6-AA.
T8 chain: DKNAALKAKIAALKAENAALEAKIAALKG

A further experiment addresses T9, P5-AA-1HGe-T.
T9 chain: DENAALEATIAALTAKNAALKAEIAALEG
To be noted: mean of both orientations.

For a further experiment, the target named is T10, P5-AA-1HGe-W.
T10 chain: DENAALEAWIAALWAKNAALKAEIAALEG
As to conditions: mean of both orientations.

In a further experiment the target is T11, O7-AA.
T11 chain: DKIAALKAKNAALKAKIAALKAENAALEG
To be noted: mean of both orientations.

A further experiment deals with T12, P5-AA-1HGe-Y.
T12 chain: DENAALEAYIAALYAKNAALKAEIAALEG
To be noted: mean of both orientations.

The target in the next experiment is T13, P9-AA.
T13 chain: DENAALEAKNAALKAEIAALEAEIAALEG
As to conditions: mean of both orientations.

The target of a further experiment is T14, P5-AA-1HGe-R.
T14 chain: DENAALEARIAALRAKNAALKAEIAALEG
To be noted: mean of both orientations.

A further experiment has as its target T15, P5-AA-1HGe-S.
T15 chain: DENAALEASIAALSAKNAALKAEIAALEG
To be noted: mean of both orientations.

Another experiment has as its target T16, 4H2604-AA.
T16 chain: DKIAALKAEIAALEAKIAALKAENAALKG
As to conditions: mean of both orientations.

The target of another experiment is T17, 4H3629-AA.
T17 chain: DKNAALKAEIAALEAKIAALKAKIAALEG
As to conditions: mean of both orientations.

The next experiment has as its target T18, 4H3449-AA.
T18 chain: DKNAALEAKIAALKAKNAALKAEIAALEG
To be noted: mean of both orientations.

For the next experiment, the target named is T19, 4H3619-AA.
T19 chain: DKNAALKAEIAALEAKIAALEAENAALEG
As to conditions: mean of both orientations.

Another experiment addresses T20, 4H2774-AA.
T20 chain: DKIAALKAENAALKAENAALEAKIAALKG
To be noted: mean of both orientations.

The next experiment has as its target T21, 4H432-AA.
T21 chain: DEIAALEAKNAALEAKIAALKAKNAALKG
As to conditions: mean of both orientations.

Another experiment has as its target T22, 4H380-AA.
T22 chain: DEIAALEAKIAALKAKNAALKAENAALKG
To be noted: mean of both orientations.

Another experiment addresses T23, 4H3974-AA.
T23 chain: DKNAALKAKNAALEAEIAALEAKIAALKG
To be noted: mean of both orientations.

A further experiment has as its target T24, 4H3049-AA.
T24 chain: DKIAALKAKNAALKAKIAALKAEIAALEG
As to conditions: mean of both orientations.

A further experiment addresses T25, 4H133-AA.
T25 chain: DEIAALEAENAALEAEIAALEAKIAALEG
To be noted: mean of both orientations.

In the next experiment the target is T26, 4H2947-AA.
T26 chain: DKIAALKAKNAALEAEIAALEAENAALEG
To be noted: mean of both orientations.

The next experiment deals with T27, 4H1878-AA.
T27 chain: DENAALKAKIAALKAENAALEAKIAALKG
As to conditions: mean of both orientations.

The target of the next experiment is T28, 4H2621-AA.
T28 chain: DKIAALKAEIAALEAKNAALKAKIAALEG
As to conditions: mean of both orientations.

The next experiment has as its target T29, 4H2760-AA.
T29 chain: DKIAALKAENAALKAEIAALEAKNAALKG
To be noted: mean of both orientations.

A further experiment has as its target T30, 4H2580-AA.
T30 chain: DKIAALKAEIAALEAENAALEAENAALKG
As to conditions: mean of both orientations.

A further experiment has as its target T31, 4H63-AA.
T31 chain: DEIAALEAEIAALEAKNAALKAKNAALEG
To be noted: mean of both orientations.

The next experiment deals with T32, 4H1384-AA.
T32 chain: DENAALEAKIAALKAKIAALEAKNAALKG
To be noted: mean of both orientations.

The next experiment deals with T33, 4H1262-AA.
T33 chain: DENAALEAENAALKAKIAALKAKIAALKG

For a further experiment, the target named is T34, 4H3094-AA.
T34 chain: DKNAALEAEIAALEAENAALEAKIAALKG
To be noted: mean of both orientations.

The target in another experiment is T35, 4H1349-AA.
T35 chain: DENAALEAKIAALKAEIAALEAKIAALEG
As to conditions: mean of both orientations.

Another experiment has as its target T36, 4H341-AA.
T36 chain: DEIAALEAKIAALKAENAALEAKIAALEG
To be noted: mean of both orientations.

The target in another experiment is T37, 4H3915-AA.
T37 chain: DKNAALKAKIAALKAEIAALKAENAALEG
To be noted: mean of both orientations.

Another experiment concerns the target T38, 4H3777-AA.
T38 chain: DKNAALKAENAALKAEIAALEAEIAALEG
To be noted: mean of both orientations.

A further experiment addresses T39, 4H2961-AA.
T39 chain: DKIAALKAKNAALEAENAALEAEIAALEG
As to conditions: mean of both orientations.

The target in the next experiment is T40, 4H249-AA.
T40 chain: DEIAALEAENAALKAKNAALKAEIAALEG
As to conditions: mean of both orientations.

The next experiment deals with T41, 4H2903-AA.
T41 chain: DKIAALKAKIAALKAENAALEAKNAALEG
As to conditions: mean of both orientations.

A further experiment addresses T42, 4H1449-AA.
T42 chain: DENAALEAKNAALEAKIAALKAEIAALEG
As to conditions: mean of both orientations.

The next experiment concerns the target T43, 4H446-AA.
T43 chain: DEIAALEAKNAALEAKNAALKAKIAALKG
To be noted: mean of both orientations.

The next experiment deals with T44, 4H324-AA.
T44 chain: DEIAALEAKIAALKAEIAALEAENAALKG
As to conditions: mean of both orientations.

The next experiment has as its target T45, 4H235-AA.
T45 chain: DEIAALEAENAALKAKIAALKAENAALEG
As to conditions: mean of both orientations.

A further experiment deals with T46, 4H1593-AA.
T46 chain: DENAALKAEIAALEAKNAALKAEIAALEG
As to conditions: mean of both orientations.

Regarding DKNAALKAKIAALKAENAALEAKIAALKG [O6-AA], the interaction score with P5-AA-1HGe-D was 1.7; with P5-AA-1HGe-A, 2.21; with P5-AA-1HGe-Q, 2.25; in the experiment with P5-AA-1HGe-M, 2.06; with O8-AA, 1.57; with P10-AA, -1.2. In addition, the interaction score with P5-AA-1HGe-H was 1.6; with O6-AA it was -0.782; in the experiment with P5-AA-1HGe-T, 2.12; with P5-AA-1HGe-W it was 1.75; with O7-AA, -0.751; with P5-AA-1HGe-Y, 1.74. The interaction score with P9-AA was -0.00244; in the experiment with P5-AA-1HGe-R, 1.98; with P5-AA-1HGe-S it was 1.69.

Take DENAALEAENAALKAKIAALKAKIAALKG [4H1262-AA]: the interaction score with 4H2604-AA was -0.779; in the experiment with 4H3629-AA, -0.649; with 4H3449-AA, -0.766; with 4H3619-AA, 1.07; in the experiment with 4H2774-AA, 1.29; with 4H432-AA, -1.48. The interaction score in the experiment with 4H380-AA is -1.85; with 4H3974-AA, 1.62; with 4H3049-AA it was 1.23; with 4H133-AA it was 1.64; with 4H2947-AA, 0.251; with 4H1878-AA it was -1.09. Further, the interaction score is -1.25 in the experiment with 4H2621-AA; 1.09 in the experiment with 4H2760-AA; -1.41 in the experiment with 4H2580-AA; -0.668 in the experiment with 4H63-AA; -0.839 in the experiment with 4H1384-AA; 0.551 in the experiment with 4H1262-AA. For the same molecule, the interaction score with 4H3094-AA is -0.633; in the experiment with 4H1349-AA, 0.283; with 4H341-AA, -1.06; with 4H3915-AA, -0.487; with 4H3777-AA, 2.49; with 4H2961-AA, -0.013. For the same molecule, the interaction score in the experiment with 4H249-AA was -0.555; with 4H2903-AA, -1.83; with 4H1449-AA it was -0.611; with 4H446-AA it was -1.67; in the experiment with 4H324-AA, -1.15; with 4H235-AA, -0.797. In the experiment with 4H1593-AA, this molecule came in with an interaction score of -1.34.
